The values below come from patent US20090042248.

In series [1] the target is T1, C1-inhibitor, P05155.
T1 chain: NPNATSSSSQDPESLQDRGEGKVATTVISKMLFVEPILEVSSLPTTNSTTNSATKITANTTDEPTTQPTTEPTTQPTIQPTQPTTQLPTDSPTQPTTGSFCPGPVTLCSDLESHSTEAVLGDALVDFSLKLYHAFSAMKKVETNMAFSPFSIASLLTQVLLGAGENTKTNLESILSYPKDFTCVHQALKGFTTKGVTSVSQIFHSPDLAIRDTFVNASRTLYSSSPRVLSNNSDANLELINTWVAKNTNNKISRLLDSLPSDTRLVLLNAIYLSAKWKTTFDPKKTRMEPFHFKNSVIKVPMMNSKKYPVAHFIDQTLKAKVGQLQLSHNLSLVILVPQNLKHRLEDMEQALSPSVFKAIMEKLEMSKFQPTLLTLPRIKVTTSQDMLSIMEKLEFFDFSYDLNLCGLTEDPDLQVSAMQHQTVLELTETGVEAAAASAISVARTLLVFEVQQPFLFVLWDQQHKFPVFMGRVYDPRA
In words: SDS-stable complex formation of 125I-labelled MASP fragments with C1-inhibitor.

In series [2] the target is 'live' C3 (C3 with an intact thiol ester bond), P01024.
Series [3] addresses T2, P1 Lys oligopeptide of the competing oligopeptide substrate library.
T2 chain: HAAPKSANIQIAI

Series [4] deals with T3, P1 Arg oligopeptide of the competing oligopeptide substrate library.
T3 chain: HAAPRSANIQIAI

The target in a further series is T4, Human C2, P06681.
T4 chain: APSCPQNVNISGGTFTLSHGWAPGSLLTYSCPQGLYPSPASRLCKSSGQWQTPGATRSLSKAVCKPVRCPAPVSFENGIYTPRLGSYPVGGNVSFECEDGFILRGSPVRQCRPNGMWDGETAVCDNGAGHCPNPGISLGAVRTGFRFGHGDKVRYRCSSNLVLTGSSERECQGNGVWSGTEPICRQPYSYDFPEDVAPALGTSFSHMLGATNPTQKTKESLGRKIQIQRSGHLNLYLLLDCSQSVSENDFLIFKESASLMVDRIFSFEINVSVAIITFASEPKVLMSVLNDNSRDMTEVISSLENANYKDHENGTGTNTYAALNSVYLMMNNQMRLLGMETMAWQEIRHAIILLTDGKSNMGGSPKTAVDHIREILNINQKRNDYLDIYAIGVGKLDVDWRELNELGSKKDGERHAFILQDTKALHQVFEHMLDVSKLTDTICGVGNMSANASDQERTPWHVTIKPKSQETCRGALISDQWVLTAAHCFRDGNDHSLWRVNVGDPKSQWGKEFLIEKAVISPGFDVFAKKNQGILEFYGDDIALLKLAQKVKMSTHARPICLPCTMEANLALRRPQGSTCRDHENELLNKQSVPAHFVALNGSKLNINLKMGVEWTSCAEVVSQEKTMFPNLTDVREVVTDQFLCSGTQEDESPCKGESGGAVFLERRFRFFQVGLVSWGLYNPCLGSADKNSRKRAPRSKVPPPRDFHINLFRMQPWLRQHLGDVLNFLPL

Series [5] concerns the target T1, C1-inhibitor, P05155. In words: SDS-stable complex formation of 125I-labelled MASP fragment with C1-inhibitor, reducing SDS-PAGE, autoradiography and densitometry.

Chain of Human C4, P0C0L4 (P0C0L4 whole entry, looked up): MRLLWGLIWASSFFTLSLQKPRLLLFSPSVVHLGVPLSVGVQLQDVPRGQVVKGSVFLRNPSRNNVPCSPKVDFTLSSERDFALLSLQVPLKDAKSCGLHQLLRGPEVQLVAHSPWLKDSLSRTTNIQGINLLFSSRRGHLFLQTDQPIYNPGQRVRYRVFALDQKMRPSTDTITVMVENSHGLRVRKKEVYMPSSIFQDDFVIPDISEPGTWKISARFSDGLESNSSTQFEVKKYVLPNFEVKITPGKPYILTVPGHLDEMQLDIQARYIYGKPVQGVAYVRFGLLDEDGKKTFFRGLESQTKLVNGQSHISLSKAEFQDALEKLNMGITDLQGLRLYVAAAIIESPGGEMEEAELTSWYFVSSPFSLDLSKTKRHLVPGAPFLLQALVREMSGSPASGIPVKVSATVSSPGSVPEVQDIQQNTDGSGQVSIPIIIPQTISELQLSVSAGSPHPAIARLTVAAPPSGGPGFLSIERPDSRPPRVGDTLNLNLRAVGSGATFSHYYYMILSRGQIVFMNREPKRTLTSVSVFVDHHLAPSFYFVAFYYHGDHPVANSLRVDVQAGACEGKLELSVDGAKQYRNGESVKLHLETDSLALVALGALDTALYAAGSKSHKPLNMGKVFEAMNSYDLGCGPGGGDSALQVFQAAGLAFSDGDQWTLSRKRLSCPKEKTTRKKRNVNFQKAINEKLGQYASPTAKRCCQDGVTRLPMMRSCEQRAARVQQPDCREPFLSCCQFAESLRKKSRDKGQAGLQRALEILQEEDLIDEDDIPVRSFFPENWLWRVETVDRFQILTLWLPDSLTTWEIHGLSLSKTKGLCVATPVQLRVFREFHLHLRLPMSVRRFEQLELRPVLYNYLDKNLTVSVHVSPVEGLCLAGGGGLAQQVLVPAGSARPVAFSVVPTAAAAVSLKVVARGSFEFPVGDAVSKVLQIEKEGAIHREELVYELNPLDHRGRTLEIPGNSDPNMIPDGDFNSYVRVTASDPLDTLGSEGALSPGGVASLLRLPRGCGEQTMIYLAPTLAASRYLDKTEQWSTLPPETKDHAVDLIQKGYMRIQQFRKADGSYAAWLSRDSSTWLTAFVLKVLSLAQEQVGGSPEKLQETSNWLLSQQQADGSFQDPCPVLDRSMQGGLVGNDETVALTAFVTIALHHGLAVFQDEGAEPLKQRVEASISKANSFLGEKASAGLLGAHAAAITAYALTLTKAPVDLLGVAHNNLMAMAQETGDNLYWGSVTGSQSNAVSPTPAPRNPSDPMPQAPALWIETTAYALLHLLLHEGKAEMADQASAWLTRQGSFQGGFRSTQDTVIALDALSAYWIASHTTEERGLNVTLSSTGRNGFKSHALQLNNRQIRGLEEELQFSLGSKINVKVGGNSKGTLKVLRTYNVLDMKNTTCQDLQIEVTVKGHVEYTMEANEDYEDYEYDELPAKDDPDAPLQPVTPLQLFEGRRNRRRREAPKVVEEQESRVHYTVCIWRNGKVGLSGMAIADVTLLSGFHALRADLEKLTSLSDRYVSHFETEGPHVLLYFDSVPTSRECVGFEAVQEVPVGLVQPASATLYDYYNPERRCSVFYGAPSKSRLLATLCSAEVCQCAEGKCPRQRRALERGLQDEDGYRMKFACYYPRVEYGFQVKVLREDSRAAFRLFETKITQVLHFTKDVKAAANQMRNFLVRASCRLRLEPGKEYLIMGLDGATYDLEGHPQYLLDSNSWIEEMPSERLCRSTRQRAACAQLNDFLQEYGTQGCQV
Chain of 'live' C3 (C3 with an intact thiol ester bond), P01024 (P01024 whole entry, looked up): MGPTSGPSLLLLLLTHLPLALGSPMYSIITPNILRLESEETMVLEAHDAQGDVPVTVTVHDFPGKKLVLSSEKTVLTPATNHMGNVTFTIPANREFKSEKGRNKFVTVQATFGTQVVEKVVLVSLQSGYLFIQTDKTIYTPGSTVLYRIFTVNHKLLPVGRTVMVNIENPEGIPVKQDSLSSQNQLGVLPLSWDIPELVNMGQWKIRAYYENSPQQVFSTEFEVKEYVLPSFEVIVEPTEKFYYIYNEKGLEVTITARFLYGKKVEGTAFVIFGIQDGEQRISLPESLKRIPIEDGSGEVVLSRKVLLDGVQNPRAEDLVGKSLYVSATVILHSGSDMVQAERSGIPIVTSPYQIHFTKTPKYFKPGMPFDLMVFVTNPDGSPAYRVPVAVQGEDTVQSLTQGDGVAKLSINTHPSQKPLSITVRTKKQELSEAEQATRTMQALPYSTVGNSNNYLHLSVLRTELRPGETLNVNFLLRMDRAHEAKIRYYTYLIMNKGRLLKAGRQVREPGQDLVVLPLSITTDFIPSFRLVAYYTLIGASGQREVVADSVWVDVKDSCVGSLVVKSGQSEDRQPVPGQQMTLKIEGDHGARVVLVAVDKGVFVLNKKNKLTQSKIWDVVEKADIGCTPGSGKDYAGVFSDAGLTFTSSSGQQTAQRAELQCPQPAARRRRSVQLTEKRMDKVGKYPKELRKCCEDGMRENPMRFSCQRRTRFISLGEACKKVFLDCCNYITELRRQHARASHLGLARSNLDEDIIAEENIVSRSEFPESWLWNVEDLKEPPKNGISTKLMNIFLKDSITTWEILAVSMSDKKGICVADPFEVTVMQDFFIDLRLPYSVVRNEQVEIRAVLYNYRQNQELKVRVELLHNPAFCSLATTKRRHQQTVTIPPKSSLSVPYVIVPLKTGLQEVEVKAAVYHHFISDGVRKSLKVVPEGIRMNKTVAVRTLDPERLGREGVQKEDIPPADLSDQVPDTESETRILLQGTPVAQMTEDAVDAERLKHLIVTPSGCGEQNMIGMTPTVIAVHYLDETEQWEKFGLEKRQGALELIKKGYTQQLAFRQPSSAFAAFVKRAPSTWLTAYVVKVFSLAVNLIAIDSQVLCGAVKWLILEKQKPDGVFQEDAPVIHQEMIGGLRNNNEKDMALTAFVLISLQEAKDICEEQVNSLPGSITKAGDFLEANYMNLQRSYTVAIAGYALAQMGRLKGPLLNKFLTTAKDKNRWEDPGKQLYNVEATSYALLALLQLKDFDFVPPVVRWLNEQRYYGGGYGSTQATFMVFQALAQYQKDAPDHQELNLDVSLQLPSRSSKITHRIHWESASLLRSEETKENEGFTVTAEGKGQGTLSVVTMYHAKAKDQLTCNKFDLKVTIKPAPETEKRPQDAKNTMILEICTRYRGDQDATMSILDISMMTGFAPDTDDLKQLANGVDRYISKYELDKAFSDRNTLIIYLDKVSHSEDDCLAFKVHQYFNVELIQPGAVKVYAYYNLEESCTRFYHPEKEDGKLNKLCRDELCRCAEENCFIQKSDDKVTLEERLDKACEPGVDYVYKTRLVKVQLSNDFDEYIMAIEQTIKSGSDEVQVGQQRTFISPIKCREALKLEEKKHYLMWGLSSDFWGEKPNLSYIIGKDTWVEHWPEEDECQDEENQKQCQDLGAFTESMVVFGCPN
Chain of 'dead' C3(NH3), P01024 (P01024 whole entry, looked up): as above

B1: MASP-1 CCP1-CCP2-SP fragment (protein)
chain 1: ASMTGNECPELQPPVHGKIEPSQAKYFFKDQVLVSCDTGYKVLKDNVEMDTFQIECLKDGTWSNKIPTCKIVDCRAPGELEHGLITFSTRNNLTTYKSEIKYSCQEPYYKMLNNNTGIYTCSAQGVWMNKVLGRSLPTCLPVCGLPKFSRKLMAR
chain 2: IFNGRPAQKGTTPWIAMLSHLNGQPFCGGSLLGSSWIVTAAHCLHQSLDPEDPTLRDSDLLSPSDFKIILGKHWRLRSDENEQHLGVKHTTLHPQYDPNTFENDVALVELLESPVLNAFVMPICLPEGPQQEGAMVIVSGWGKQFLQRFPETLMEIEIPIVDHSTCQKAYAPLKKKVTRDMICAGEKEGGKDACAGDSGGPMVTLNRERGQWYLVGTVSWGDDCGKKDRYGVYSYIHHNKDWIQRVTGVRN
Consider B1, for which, in the series with C1-inhibitor, P05155 [1], the “fold lower kobs than for the MASP-2 CCP1-CCP2-SP fragment” value is listed as 5-fold less for the MASP-1 CCP1-CCP2-SP than for the MASP-2 CCP1-CCP2-SP fragment. For the same protein, the kcat/KM, cleavage of C3(NH3) with 'dead' C3(NH3), P01024 came to 6100 M⁻¹ s⁻¹. The kcat/KM, cleavage of live C3 in series [2] came to 300 M⁻¹ s⁻¹. Also, in the series with Human C4, P0C0L4, the KM, C4 cleavage is 2.7 µM; the kcat, C4 cleavage worked out at 0.002 s⁻¹; the kcat/KM, C4 cleavage was 690 M⁻¹ s⁻¹. For the same protein, the “cleavage in the competing oligopeptide substrate library” value in series [3] is “both enzymes cleave oligopeptides that contain either Arg or Lys at their P1 positions”. Further, in series [4], the “cleavage in the competing oligopeptide substrate library” value is given as “both enzymes cleave oligopeptides that contain either Arg or Lys at their P1 positions”, the “digestion of the P1 Arg oligopeptide at 15 min” value is “at 15 min MASP-1 showed almost 90% digestion” and the “efficiency of digestion against the MASP-2 CCP1-CCP2-SP fragment” value is reported as “the MASP-1 CCP1-CCP2-SP fragment digests the P1 Arg peptide 4-5 fold more efficiently than the corresponding fragment of MASP-2”. Besides, in the series with Human C2, P06681, the KM, C2 cleavage is 4.8 µM; the kcat, C2 cleavage was found to be 0.1 s⁻¹; the kcat/KM, C2 cleavage stood at 30000 M⁻¹ s⁻¹. In the series with C1-inhibitor, P05155 [5], this protein registered a kobs (pseudo-first order rate of reaction at [C1-inh] = 350 nM) of 0.0014 s⁻¹.
